Sequences and labels used below:
B1: Septin-11 (Homo sapiens), Q9NVA2 (parent)
chain: MAVAVGRPSNEELRNLSLSGHVGFDSLPDQLVNKSTSQGFCFNILCVGETGIGKSTLMDTLFNTKFESDPATHNEPGVRLKARSYELQESNVRLKLTIVDTVGFGDQINKDDSYKPIVEYIDAQFEAYLQEELKIKRSLFNYHDTRIHACLYFIAPTGHSLKSLDLVTMKKLDSKVNIIPIIAKADTIAKNELHKFKSKIMSELVSNGVQIYQFPTDEETVAEINATMSVHLPFAVVGSTEEVKIGNKMAKARQYPWGVVQVENENHCDFVKLREMLIRVNMEDLREQTHTRHYELYRRCKLEEMGFKDTDPDSKPFSLQETYEAKRNEFLGELQKKEEEMRQMFVMRVKEKEAELKEAEKELHEKFDLLKRTHQEEKKKVEDKKKELEEEVNNFQKKKAAAQLLQSQAQQSGAQQTKKDKDKKNASFT
partner: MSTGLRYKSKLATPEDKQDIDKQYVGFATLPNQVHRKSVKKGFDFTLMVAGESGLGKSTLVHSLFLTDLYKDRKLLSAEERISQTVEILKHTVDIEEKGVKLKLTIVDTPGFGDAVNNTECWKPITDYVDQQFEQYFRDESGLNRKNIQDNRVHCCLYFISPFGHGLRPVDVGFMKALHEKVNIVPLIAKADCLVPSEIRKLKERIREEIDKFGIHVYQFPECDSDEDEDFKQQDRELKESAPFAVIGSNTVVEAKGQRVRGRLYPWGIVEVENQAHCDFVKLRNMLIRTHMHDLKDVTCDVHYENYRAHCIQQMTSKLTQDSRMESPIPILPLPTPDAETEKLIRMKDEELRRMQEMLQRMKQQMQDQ

The test covers variants of B1. The conditions noted are these: with sept5_human SEPTIN5, Q99719.
As to MAVAVGRPSNEELRNLSLSGHVGFDSLPDQLVNKSTSQGFCFNILCVGETGIGKNTLMDTLFNTKFESDPATHNEPGVRLKARSYELQESNVRLKLTIVDTVGFGDQINKDDSYKPIVEYIDAQFEAYLQEELKIKRSLFNYHDTRIHACLYFIAPTGHSLKSLDLVTMKKLDSKVNIIPIIAKADTIAKNELHKFKSKIMSELVSNGVQIYQFPTDEETVAEINATMSVHLPFAVVGSTEEVKIGNKMAKARQYPWGVVQVENENHCDFVKLREMLIRVNMEDLREQTHTRHYELYRRCKLEEMGFKDTDPDSKPFSLQETYEAKRNEFLGELQKKEEEMRQMFVMRVKEKEAELKEAEKELHEKFDLLKRTHQEEKKKVEDKKKELEEEVNNFQKKKAAAQLLQSQAQQSGAQQTKKDKDKKNASFT [S55N], the “effect of a mutation on the interaction” value was “disrupting interaction”.

The values above are taken from IntAct's records for PubMed 16767699.
